Assay [1] concerns the target T1, purified recombinant CSPα^WT (E. coli, GST removed by TEV protease) (Homo sapiens (Human)), Q9H3Z4.
T1 chain: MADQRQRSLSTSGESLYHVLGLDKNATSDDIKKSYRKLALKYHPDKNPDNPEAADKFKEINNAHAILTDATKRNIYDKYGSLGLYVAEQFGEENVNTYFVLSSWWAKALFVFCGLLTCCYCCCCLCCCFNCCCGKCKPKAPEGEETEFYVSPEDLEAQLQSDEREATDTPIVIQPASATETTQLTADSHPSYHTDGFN
The assay can be described thus: self-oligomerization of purified recombinant protein, SDS-PAGE and quantitative anti-CSPα immunoblot. The conditions noted are these: remark: other sources report otherwise.

In assay [2] the target is T2, purified recombinant CSPα^L115R (E. coli, GST removed by TEV protease) (Homo sapiens (Human)), Q9H3Z4.
T2 chain: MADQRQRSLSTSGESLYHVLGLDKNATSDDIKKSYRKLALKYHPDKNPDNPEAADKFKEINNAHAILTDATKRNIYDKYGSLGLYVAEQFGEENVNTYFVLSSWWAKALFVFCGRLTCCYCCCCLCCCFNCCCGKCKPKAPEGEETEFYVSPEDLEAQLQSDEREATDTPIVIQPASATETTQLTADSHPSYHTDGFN
The description is as above. Particulars: remark: other sources report otherwise.

B1: purified recombinant CSPα^WT (E. coli, GST removed by TEV protease), Q9H3Z4 1-198 (protein)
chain: MADQRQRSLSTSGESLYHVLGLDKNATSDDIKKSYRKLALKYHPDKNPDNPEAADKFKEINNAHAILTDATKRNIYDKYGSLGLYVAEQFGEENVNTYFVLSSWWAKALFVFCGLLTCCYCCCCLCCCFNCCCGKCKPKAPEGEETEFYVSPEDLEAQLQSDEREATDTPIVIQPASATETTQLTADSHPSYHTDGFN
modifications: here or on the partner: Fe-S clusters bound at the Cys-string of the E. coli protein. No palmitoylation in bacteria.; Fe-S clusters bound at the Cys-string of the E. coli protein. No palmitoylation in bacteria.
B1: the percent of protein existing as oligomers in assay [1] stood at 75%.

B2: purified recombinant CSPα^L115R (E. coli, GST removed by TEV protease), Q9H3Z4 1-198 (protein)
chain: MADQRQRSLSTSGESLYHVLGLDKNATSDDIKKSYRKLALKYHPDKNPDNPEAADKFKEINNAHAILTDATKRNIYDKYGSLGLYVAEQFGEENVNTYFVLSSWWAKALFVFCGRLTCCYCCCCLCCCFNCCCGKCKPKAPEGEETEFYVSPEDLEAQLQSDEREATDTPIVIQPASATETTQLTADSHPSYHTDGFN
modifications: here or on the partner: Fe-S clusters bound at the Cys-string of the E. coli protein.; Fe-S clusters bound at the Cys-string of the E. coli protein.
In the case of B2, the percent of protein existing as oligomers in assay [2] is 75%.
